Ends that are not written are not given here.
Tests used:
Assay in all cases: peptide microarray
[1] = molecular target: ApoC3 peptide … S48W (human, cyclic constrained)
Outline: (§1)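 Peptide microarrays of ApoC3-derived peptides incubated with antibody samples, then stained with goat anti-human IgG (Fc) DyLight680 (1:5000) and anti-HA DyLight800 (1:2000) control. Read-out by fluorescence scanning at intensities 7/7 (red/green); a secondary-only pre-stain checked background, HA frame peptides served as quality control.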

[2] = molecular target: T1, ApoC3 peptide … F47A (human, not fully specified (bridges); also: cyclic constrained)
T1 peptide: ARGWVTDGASSLK
Outline: as §1

[3] = molecular target: T2, ApoC3 peptide … D45V (human, cyclic constrained)
T2 peptide: ARGWVTVGFSSLK
Outline: as §1

[4] = molecular target: T3, ApoC3 peptide … A39K (human, cyclic constrained)
T3 peptide: KRGWVTDGFSSLK
Outline: as §1

[5] = molecular target: T4, ApoC3 peptide … F47S (human, also: cyclic constrained)
T4 peptide: ARGWVTDGSSSLK
Outline: as §1

[6] = molecular target: T5, ApoC3 peptide … S49R (human, not fully specified (bridges); also: cyclic constrained)
T5 peptide: ARGWVTDGFSRLK
Outline: as §1

[7] = molecular target: T6, wild-type ApoC3 peptide ARGWVTDGFSSLK (SEQ ID NO: 45) (human, not fully specified (bridges); also: cyclic constrained, ring type and positions not given here)
T6 construct: 13 aa cyclic constrained peptide
T6 peptide: ARGWVTDGFSSLK
Outline: as §1

[8] = molecular target: T7, ApoC3 peptide … A39G (human, cyclic constrained)
T7 peptide: GRGWVTDGFSSLK
Outline: as §1

[9] = molecular target: T8, ApoC3 peptide … K51M (human, not fully specified; cyclic constrained)
T8 peptide: ARGWVTDGFSSLM
Outline: as §1

[10] = molecular target: T9, ApoC3 peptide … T44R (human, not fully specified (bridges); also: cyclic constrained)
T9 peptide: ARGWVRDGFSSLK
Outline: as §1

[11] = molecular target: T10, ApoC3 peptide … D45L (human, cyclic constrained)
T10 peptide: ARGWVTLGFSSLK
Outline: as §1

[12] = molecular target: T11, ApoC3 peptide … R40E (human, not fully specified (bridges); also: cyclic constrained)
T11 peptide: AEGWVTDGFSSLK
Outline: as §1

[13] = molecular target: T12, ApoC3 peptide … F47E (human, not fully specified (bridges); also: cyclic constrained)
T12 peptide: ARGWVTDGESSLK
Outline: as §1

[14] = molecular target: T13, ApoC3 peptide … D45N (human, cyclic constrained)
T13 peptide: ARGWVTNGFSSLK
Outline: as §1

[15] = molecular target: T14, ApoC3 peptide … K51H (human, not fully specified; cyclic constrained)
T14 peptide: ARGWVTDGFSSLH
Outline: as §1

[16] = molecular target: T15, ApoC3 peptide … G41Y (human, also: cyclic constrained)
T15 peptide: ARYWVTDGFSSLK
Outline: as §1

[17] = molecular target: T16, ApoC3 peptide … G41A (human, also: cyclic constrained)
T16 peptide: ARAWVTDGFSSLK
Outline: as §1

[18] = molecular target: T17, ApoC3 peptide … R40I (human, not fully specified (bridges); also: cyclic constrained)
T17 peptide: AIGWVTDGFSSLK
Outline: as §1

[19] = molecular target: T18, ApoC3 peptide … G41N (human, also: cyclic constrained)
T18 peptide: ARNWVTDGFSSLK
Outline: as §1

[20] = molecular target: T19, ApoC3 peptide … G41K (human, also: cyclic constrained)
T19 peptide: ARKWVTDGFSSLK
Outline: as §1

[21] = molecular target: T20, ApoC3 peptide … T44Y (human, not fully specified (bridges); also: cyclic constrained)
T20 peptide: ARGWVYDGFSSLK
Outline: as §1

[22] = molecular target: T21, ApoC3 peptide … G46K (human, not fully specified (bridges); also: cyclic constrained)
T21 peptide: ARGWVTDKFSSLK
Outline: as §1

[23] = molecular target: T22, ApoC3 peptide … D45H (human, cyclic constrained)
T22 peptide: ARGWVTHGFSSLK
Outline: as §1

[24] = molecular target: T23, ApoC3 peptide … W42F (human, not fully specified (bridges); also: cyclic constrained)
T23 peptide: ARGFVTDGFSSLK
Outline: as §1

[25] = molecular target: T24, ApoC3 peptide … K51P (human, not fully specified; cyclic constrained)
T24 peptide: ARGWVTDGFSSLP
Outline: as §1

[26] = molecular target: ApoC3 peptide … S48Q (human, cyclic constrained)
Outline: as §1

[27] = molecular target: T25, ApoC3 peptide … F47T (human, also: cyclic constrained)
T25 peptide: ARGWVTDGTSSLK
Outline: as §1

[28] = molecular target: T26, ApoC3 peptide … S49V (human, not fully specified (bridges); also: cyclic constrained)
T26 peptide: ARGWVTDGFSVLK
Outline: as §1

[29] = molecular target: T27, ApoC3 peptide … V43R (human, not fully specified (bridges); also: cyclic constrained)
T27 peptide: ARGWRTDGFSSLK
Outline: as §1

[30] = molecular target: T28, ApoC3 peptide … A39H (human, cyclic constrained)
T28 peptide: HRGWVTDGFSSLK
Outline: as §1

[31] = molecular target: T29, ApoC3 peptide … K51Y (human, not fully specified; cyclic constrained)
T29 peptide: ARGWVTDGFSSLY
Outline: as §1

% of binding to wild-type peptide [1]: 3.49%
% of binding to wild-type peptide [2]: 0%
% of binding to wild-type peptide [3]: 1.21%
% of binding to wild-type peptide [4]: 72.9%
% of binding to wild-type peptide [5]: 0%
% of binding to wild-type peptide [6]: 0.74%
% of binding to wild-type peptide [7]: 100%
% of binding to wild-type peptide [8]: 93%
% of binding to wild-type peptide [9]: 11.1%
% of binding to wild-type peptide [10]: 0%
% of binding to wild-type peptide [11]: 17.1%
% of binding to wild-type peptide [12]: 76.9%
% of binding to wild-type peptide [13]: 0%
% of binding to wild-type peptide [14]: 4.85%
% of binding to wild-type peptide [15]: 2.43%
% of binding to wild-type peptide [16]: 6.27%
% of binding to wild-type peptide [17]: 7.01%
% of binding to wild-type peptide [18]: 35.1%
% of binding to wild-type peptide [19]: 27.5%
% of binding to wild-type peptide [20]: 18%
% of binding to wild-type peptide [21]: 0%
% of binding to wild-type peptide [22]: 0.24%
% of binding to wild-type peptide [23]: 1.81%
% of binding to wild-type peptide [24]: 242%
% of binding to wild-type peptide [25]: 0.24%
% of binding to wild-type peptide [26]: 46.8%
% of binding to wild-type peptide [27]: 0%
% of binding to wild-type peptide [28]: 0.59%
% of binding to wild-type peptide [29]: 15.1%
% of binding to wild-type peptide [30]: 69.4%
% of binding to wild-type peptide [31]: 0%
B1: anti-ApoC3 antibody 14C7 (antibody, V domains shown)
VH: QVQVQESGPGLVKPSQTLSLTCTVSGGSITTNSYYWSWIRQPPGKGLEWMGAIDYSGDTYYSPSLKSRTSISRDTSKNQFTLQLTSVTPEDTAVYYCVSRIPTGEYWGQGTQVTVSS
VL: QTVVTQEPSLSVSPGGTVTLTCGLNSGSVTSSNYPDWYQQTPGQAPRLLIYNTNSRHSGVPSRFSGSISGNKAALTITGAQPEDEADYYCALYMGSDSVVFGGGTHLTVL
notes: it was detected with goat anti-human IgG (Fc); also called mAb 14C7; llama antibody 14C7
